# T1: RTN2 fused to mRFP (Arabidopsis reticulon 2) (Arabidopsis thaliana, UniProt Q9SUT9 1-271)
# T1 sequence (looked up): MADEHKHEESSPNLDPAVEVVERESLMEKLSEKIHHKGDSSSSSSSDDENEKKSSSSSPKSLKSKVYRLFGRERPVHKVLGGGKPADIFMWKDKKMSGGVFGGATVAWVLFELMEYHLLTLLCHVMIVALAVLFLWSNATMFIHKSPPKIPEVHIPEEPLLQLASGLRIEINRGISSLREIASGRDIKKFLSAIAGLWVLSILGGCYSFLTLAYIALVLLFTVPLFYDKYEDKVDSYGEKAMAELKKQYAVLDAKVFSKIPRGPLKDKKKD
# T2: RTN3 fused to mRFP (Arabidopsis reticulon 3) (Arabidopsis thaliana, UniProt Q9SH59 1-255)
# T2 sequence (looked up): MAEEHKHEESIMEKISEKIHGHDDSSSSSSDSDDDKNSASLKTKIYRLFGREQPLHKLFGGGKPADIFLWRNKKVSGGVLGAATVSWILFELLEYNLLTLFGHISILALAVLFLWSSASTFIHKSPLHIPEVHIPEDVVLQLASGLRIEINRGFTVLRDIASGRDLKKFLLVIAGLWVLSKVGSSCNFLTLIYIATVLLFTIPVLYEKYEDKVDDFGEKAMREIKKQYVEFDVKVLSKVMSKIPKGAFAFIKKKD
# T3: RTN19 fused to mRFP (Arabidopsis reticulon 19, 3BETAHSD/D2) (Arabidopsis thaliana, UniProt Q67ZE1 1-564)
# T3 sequence (looked up): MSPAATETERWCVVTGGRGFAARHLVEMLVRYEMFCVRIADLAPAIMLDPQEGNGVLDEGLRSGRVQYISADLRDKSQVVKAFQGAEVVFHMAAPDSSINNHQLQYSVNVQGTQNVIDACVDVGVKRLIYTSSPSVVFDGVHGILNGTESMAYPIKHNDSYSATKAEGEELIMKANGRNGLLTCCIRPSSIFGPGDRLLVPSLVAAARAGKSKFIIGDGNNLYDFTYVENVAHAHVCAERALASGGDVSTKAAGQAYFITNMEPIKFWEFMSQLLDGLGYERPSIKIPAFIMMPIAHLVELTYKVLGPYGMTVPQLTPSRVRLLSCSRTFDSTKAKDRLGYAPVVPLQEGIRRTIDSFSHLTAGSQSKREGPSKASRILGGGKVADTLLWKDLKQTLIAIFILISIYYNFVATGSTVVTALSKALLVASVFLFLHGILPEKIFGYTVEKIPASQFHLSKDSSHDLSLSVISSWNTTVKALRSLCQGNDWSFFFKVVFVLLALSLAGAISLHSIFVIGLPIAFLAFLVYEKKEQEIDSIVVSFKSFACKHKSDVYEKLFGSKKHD
# T4: mRFP-RTN1 (Arabidopsis reticulon 1) (Arabidopsis thaliana, UniProt Q9SUR3 1-275)
# T4 sequence (looked up): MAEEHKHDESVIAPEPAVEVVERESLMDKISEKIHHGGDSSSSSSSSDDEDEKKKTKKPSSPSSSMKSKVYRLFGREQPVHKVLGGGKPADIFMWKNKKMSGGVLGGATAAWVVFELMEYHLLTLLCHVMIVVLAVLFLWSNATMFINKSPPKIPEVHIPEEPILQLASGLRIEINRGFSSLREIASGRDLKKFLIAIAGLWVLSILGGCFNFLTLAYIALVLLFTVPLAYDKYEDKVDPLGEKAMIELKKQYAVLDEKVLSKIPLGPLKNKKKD
# B1: GFP-RTN20 (Arabidopsis reticulon 20) (natural protein, Arabidopsis thaliana, UniProt A9X4U2 1-561, looked up)
# chain: MDEDSVHGDSHLKTCVVLGGRGFIGRSLVSRLLRLGNWTVRVADSGHTLHLDESDSLLEDALSSGRASYHCVDVRDKPQIVKVTEGSYVVFYMGATDLRSHDYFDCYKVIVQGTRNVISACRESGVRKLIYNSTADVVFDGSQPIRDGDESLRRPLKFQSMLTDFKAQAEALIKLANNRDGLLTCALRSSIVFGPGDTEFVPFLVNLAKSGYAKFILGSGENISDFTYSENVSHAHICAVKALDSQMEFVAGKEFFITNLKPVRFWDFVSHIVEGLGYPRPSIKLPVRLVLYVFSLLKWTHEKEGLGSNYDTAHQYALLASSTRTFNCNAAKKHLGYTPVVTLEDGIASTLQWFSRDLEKSDDTIIQSTADQLLGCGKVADILLWRNEKKTFVSFLVLNLFYYWFFFSGNTFTSSAAQLLFIFAVALYGVSFVPSKIFGFQVNKIPPWRFEISESAVRDLSSDIVVVWNQGVRSFKSLSSGGDWIKFFKIAGSLYLLKLIVSRSLAAFLFTVMSFSFTGFFIYEQYELELYHLARIFVECLTFIKRMVIPVSDASSKPMFM
# Columns and labels:
# Test in all cases: FRET or BRET
# [1] = target: T1, RTN2 fused to mRFP (Arabidopsis …)
# [2] = target: T2, RTN3 fused to mRFP (Arabidopsis …)
# [3] = target: T3, RTN19 fused to mRFP (Arabidopsis …)
# [4] = target: T4, mRFP-RTN1 (Arabidopsis reticulon 1)
binder,measurement,setting,value
B1,fluorescence lifetime of the GFP donor (FRET-FLIM),[1],2.2 ns
same,fluorescence lifetime of the GFP donor (FRET-FLIM),[2],2.2 ns
same,fluorescence lifetime of the GFP donor (FRET-FLIM),[3],2.2 ns
same,fluorescence lifetime of the GFP donor (FRET-FLIM),[4],2.21 ns
